Data set [1] has as its target T1, Polθ-hel WT (DNA polymerase theta helicase domain) (human, UniProt O75417 1-894). The data set can be described thus: fluorescence anisotropy. (Polarisation of emitted light reports the rotation of a fluorescent probe.)
Data set [2] addresses T1, Polθ-hel WT (DNA polymerase theta …). In words: EMSA. For orientation: In EMSA bound probe runs differently from free probe, usually more slowly.
Data set [3] has the same target. In words: cryo-EM structure.

T1 sequence (O75417 1-894): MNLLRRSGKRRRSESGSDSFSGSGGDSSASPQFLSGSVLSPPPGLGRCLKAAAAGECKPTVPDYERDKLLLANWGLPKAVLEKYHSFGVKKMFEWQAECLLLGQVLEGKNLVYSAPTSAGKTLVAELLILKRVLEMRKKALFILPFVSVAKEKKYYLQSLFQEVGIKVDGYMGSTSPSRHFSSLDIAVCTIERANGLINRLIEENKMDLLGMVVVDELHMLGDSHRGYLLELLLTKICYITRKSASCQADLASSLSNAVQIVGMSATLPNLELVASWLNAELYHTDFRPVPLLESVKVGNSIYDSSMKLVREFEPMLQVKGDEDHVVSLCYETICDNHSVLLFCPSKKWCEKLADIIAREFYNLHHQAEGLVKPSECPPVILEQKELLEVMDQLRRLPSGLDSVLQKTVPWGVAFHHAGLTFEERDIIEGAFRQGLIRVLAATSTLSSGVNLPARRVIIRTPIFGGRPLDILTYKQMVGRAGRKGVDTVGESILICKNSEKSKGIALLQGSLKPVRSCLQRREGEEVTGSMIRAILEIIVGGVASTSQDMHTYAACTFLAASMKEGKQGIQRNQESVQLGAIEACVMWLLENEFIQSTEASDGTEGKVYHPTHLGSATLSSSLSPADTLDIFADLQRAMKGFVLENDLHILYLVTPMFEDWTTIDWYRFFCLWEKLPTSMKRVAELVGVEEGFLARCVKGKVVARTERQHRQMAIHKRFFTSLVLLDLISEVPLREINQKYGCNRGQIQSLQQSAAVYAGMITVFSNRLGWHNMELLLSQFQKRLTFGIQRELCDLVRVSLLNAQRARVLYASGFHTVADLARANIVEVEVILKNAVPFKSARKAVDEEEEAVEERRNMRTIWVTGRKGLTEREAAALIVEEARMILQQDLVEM

B1: FAM-9T + MH (dsDNA)
DNA 1: CCAACCGACCACACCCACCACCCTACCGCCTTTTTTTTTCCCGGG
DNA 2: GGCGGTAGGGTGGTGGGTGTGGTCGGTTGG
For B1, in data set [1], the binding result was “binds”.

B2: 9-nt poly(T) with MH (unlabeled) (dsDNA)
DNA 1: B1 DNA 1
DNA 2: B1 DNA 2
Turning to B2, the binding result in data set [2] was “binds”.

B3: FAM-15T no MH (dsDNA)
DNA 1: CCAACCGACCACACCCACCACCCTACCGCCTTTTTTTTTTTTTTTTT
DNA 2: B1 DNA 2
In the case of B3, the binding result in data set [1] is “binds”.

B4: 15-nt poly(T) without MH (unlabeled) (dsDNA)
DNA 1: CCAACCGACCACACCCACCACCCTACCGCCTTTTTTTTTTTTTTT
DNA 2: B1 DNA 2
In the case of B4, the binding result in data set [2] was “binds”.

B5: FAM-11T + MH (dsDNA)
DNA 1: CCAACCGACCACACCCACCACCCTACCGCCTTTTTTTTTTTCCCGGG
DNA 2: B1 DNA 2
B5: the binding result in data set [1] is given as “binds”.

B6: 11-nt poly(T) with MH (unlabeled) (dsDNA)
DNA 1: B5 DNA 1
DNA 2: B1 DNA 2
In the case of B6, the binding result in data set [3] is recorded as “binds”.
